# Laboratory results as given in the RNAGym collection of RNA variant scans (doi:10.7554/elife.80360).
# B1: Twister Ribozyme (parent)
# chain: AACACUGCCAAUGCCGGUCCCAAGCCCGGAUAAAAGUGGAGGGGGCGG
# Variants of: B1
# Experiment: self-cleavage, relative activity (ratio to wild type); higher = more cleavage; co-transcriptional
row,Variant,self-cleavage
1,AACACUGCCAAUGCCGGUCCCGAGCUCGGAUAAAAGUGGAGGGGGCGG,0.101
2,AACACUGCCAAUGCCGGUCCCGAGCCCGGAUAAAAGUUGAGGGGGCGG,0.122
3,AACACUGCCAAUGCCGGUCCCGAGCCCGGAUAAAAGUAGAGGGGGCGG,0.106
4,AACACUGCCAAUGCCGGUCCUAAGCCCGGAUAAAAGCGGAGGGGGCGG,0.0764
5,AACACUGCCAAUGCCGGUCCUAAGCCCGGAUAAAAGGGGAGGGGGCGG,0.0506
6,AACACUGCCAAUGCCGGUCCCUAGCCCGGCUAAAAGUGGAGGGGGCGG,0.614
7,AACACUGCCAAUGCCGGUCCCCAGCCCGGAUAAAAGUGAAGGGGGCGG,0.238
8,AACACUGCCAAUGCCGGUCCCGAGCCCGGUUAAAAGUGGAGGGGGCGG,0.316
9,AACACUGCCAAUGCCGGUCCCGAGCCCGGGUAAAAGUGGAGGGGGCGG,0.394
10,AACACUGCCAAUGCCGGUCCCCUGCCCGGAUAAAAGUGGAGGGGGCGG,0.243
11,AACACUGCCAAUGCCGGUCCCGAGCCCGGAUAACAGUGGAGGGGGCGG,0.0775
12,AACACUGCCAAUGCCGGUCCCCAACCCGGAUAAAAGUGGAGGGGGCGG,0.131
13,AACACUGCCAAUGCCGGUCCCCACCCCGGAUAAAAGUGGAGGGGGCGG,0.0817
14,AACACUGCCAAUGCCGGUCCCCAUCCCGGAUAAAAGUGGAGGGGGCGG,0.0876
15,AACACUGCCAAUGCCGGUCCCCAGCCCGGCUAAAAGUGGAGGGGGCGG,1.07
16,AACACUGCCAAUGCCGGUCCCCAGCCCGGGUAAAAGUGGAGGGGGCGG,1.16
17,AACACUGCCAAUGCCGGUCCCCAGCCGGGAUAAAAGUGGAGGGGGCGG,0.101
18,AACACUGCCAAUGCCGGUCCCCAGCCAGGAUAAAAGUGGAGGGGGCGG,0.768
19,AACACUGCCAAUGCCGGUCCCGAGCCCGGAUAAAAGUGGAGGGGCCGG,0.124
20,AACACUGCCAAUGCCGGUCCCGAGGCCGGAUAAAAGUGGAGGGGGCGG,0.0838
21,AACACUGCCAAUGCCGGUCCCGAGACCGGAUAAAAGUGGAGGGGGCGG,0.0752
22,AACACUGCCAAUGCCGGUCCUAAGCCCGGAUAAAAGUGGAGGGGACGG,0.123

row,Variant,self-cleavage
1,AACACUGCCAAUGCCGGUCCUAAGCCCGGAUAAAAGUGGAGGGGCCGG,0.0779
2,AACACUGCCAAUGCCGGUCCCCAGCCCGGAUAAAAAUGGAGGGGGCGG,0.547
3,AACACUGCCAAUGCCGGUCCCCAGCCCGGAUAAAACUGGAGGGGGCGG,0.345
4,AACACUGCCAAUGCCGGUCCCCAGCCCGGAUAAACGUGGAGGGGGCGG,1.01
5,AACACUGCCAAUGCCGGUCCCCAGCCCGGAUAAAGGUGGAGGGGGCGG,1.02
6,AACACUGCCAAUGCCGGUCCCGCGCCCGGAUAAAAGUGGAGGGGGCGG,0.115
7,AACACUGCCAAUGCCGGUCCCGUGCCCGGAUAAAAGUGGAGGGGGCGG,0.0557
8,AACACUGCCAAUGCCGGUCCUAAGCCCGGACAAAAGUGGAGGGGGCGG,0.103
9,AACACUGCCAAUGCCGGUCCUAAGCCCGGAAAAAAGUGGAGGGGGCGG,0.105
10,AACACUGCCAAUGCCGGUCCCUUGCCCGGAUAAAAGUGGAGGGGGCGG,0.102
11,AACACUGCCAAUGCCGGUCCCUCGCCCGGAUAAAAGUGGAGGGGGCGG,0.0587
12,AACACUGCCAAUGCCGGUCCCGAGCCGGGAUAAAAGUGGAGGGGGCGG,0.084
13,AACACUGCCAAUGCCGGUCCCGAGCCUGGAUAAAAGUGGAGGGGGCGG,0.111
14,AACACUGCCAAUGCCGGUCCCCAGCCCGGAUAAAAGUGGAGUGGGCGG,0.198
15,AACACUGCCAAUGCCGGUCCCGAGCCCGGAUAAAUGUGGAGGGGGCGG,0.313
16,AACACUGCCAAUGCCGGUCCCGAGCCCGGAUAAACGUGGAGGGGGCGG,0.195
17,AACACUGCCAAUGCCGGUCCCCAGCCCGUAUAAAAGUGGAGGGGGCGG,0.89
18,AACACUGCCAAUGCCGGUCCCCAGCCCGAAUAAAAGUGGAGGGGGCGG,1.01
19,AACACUGCCAAUGCCGGUCCUAAGCCCGGAUAAAAGUUGAGGGGGCGG,0.0705
20,AACACUGCCAAUGCCGGUCCCCAGCCCGGAUAAAAGUGGAGGGGGCCG,0.458
21,AACACUGCCAAUGCCGGUCCCGAGCCCGGAUAAAAGUGGAGGUGGCGG,0.101
22,AACACUGCCAAUGCCGGUCCCGAGCCCGGAUAAAAGUGGAGGCGGCGG,0.154

row,Variant,self-cleavage
1,AACACUGCCAAUGCCGGUCCCGAGCCCGGAGAAAAGUGGAGGGGGCGG,0.263
2,AACACUGCCAAUGCCGGUCCCGAGCCCGGAUAAAAGUGGAGGGGGAGG,0.227
3,AACACUGCCAAUGCCGGUCCCGAGCCCGGAUAAAAGUGGAGGGGGGGG,0.328
4,AACACUGCCAAUGCCGGUCCUAAGCCCGGAUAAAAGUGGAGGGGGCCG,0.0939
5,AACACUGCCAAUGCCGGUCCUAAGCCCGGAUAAAAGUGGAGGGGGCAG,0.123
6,AACACUGCCAAUGCCGGUCCUAAGCCCGGAUAAAAGUGGAGGGAGCGG,0.126
7,AACACUGCCAAUGCCGGUCCUAAGCCCGGAUAAAAGUGGAGGGCGCGG,0.0722
8,AACACUGCCAAUGCCGGUCCCCAGCCCGGAUAAAAGGGGAGGGGGCGG,0.631
9,AACACUGCCAAUGCCGGUCCCCAGCCCGGAUAAAAGAGGAGGGGGCGG,0.84
10,AACACUGCCAAUGCCGGUCCCCAGCCCGGAUAGAAGUGGAGGGGGCGG,0.802
11,AACACUGCCAAUGCCGGUCCCCAGCCCGGAUUAAAGUGGAGGGGGCGG,0.858
12,AACACUGCCAAUGCCGGUCCCCAGCCCGGAUCAAAGUGGAGGGGGCGG,1.08
13,AACACUGCCAAUGCCGGUCCCCAGCCCGGAUGAAAGUGGAGGGGGCGG,0.879
14,AACACUGCCAAUGCCGGUCCCGAGCCCGGAUGAAAGUGGAGGGGGCGG,0.25
15,AACACUGCCAAUGCCGGUCCCCAGCCCGGAUAAAAGUGGAGGGGGCGC,1.16
16,AACACUGCCAAUGCCGGUCCCCAGCCCGGAUAAAAGUGGAGGGGGCGU,1.03
17,AACACUGCCAAUGCCGGUCCCCAGCCCGGAUAAAAGUGGAGGGGGCGA,1.01
18,AACACUGCCAAUGCCGGUCCUAAGCCCGGAUAAAAGUGGAGGCGGCGG,0.0867
19,AACACUGCCAAUGCCGGUCCUAAGCCCGGAUAAAAGUGGAGGAGGCGG,0.08
20,AACACUGCCAAUGCCGGUCCUAAGCCCGGAUAAAAGUGGAGGGGGCGA,0.131
21,AACACUGCCAAUGCCGGUCCUAAGCCCGGAUAAAAGUGGAGGGGGCGC,0.133
22,AACACUGCCAAUGCCGGUCCUAAGCCCGGAUAAAAGUGGAGGGGGCGU,0.125

row,Variant,self-cleavage
1,AACACUGCCAAUGCCGGUCCCGAGCCCGGAUAAAAGCGGAGGGGGCGG,0.129
2,AACACUGCCAAUGCCGGUCCCGAGCCCGGAUACAAGUGGAGGGGGCGG,0.147
3,AACACUGCCAAUGCCGGUCCCGAGCCCGGAUAAAACUGGAGGGGGCGG,0.0743
4,AACACUGCCAAUGCCGGUCCCGAGCCCCGAUAAAAGUGGAGGGGGCGG,0.215
5,AACACUGCCAAUGCCGGUCCCGAGCCCAGAUAAAAGUGGAGGGGGCGG,0.128
6,AACACUGCCAAUGCCGGUCCCGAGCCCUGAUAAAAGUGGAGGGGGCGG,0.197
7,AACACUGCCAAUGCCGGUCCCGAGCCCGGAUAAAAGUGGAGGGGGCCG,0.128
8,AACACUGCCAAUGCCGGUCCCGAGCCCGGAUAAAAGUGGAGGGGGCUG,0.136
9,AACACUGCCAAUGCCGGUCCCGAGCCCGGAUAAAAGUGGAGGGGGCAG,0.184
10,AACACUGCCAAUGCCGGUCCCGAUCCCGGAUAAAAGUGGAGGGGGCGG,0.0699
11,AACACUGCCAAUGCCGGUCCCGAACCCGGAUAAAAGUGGAGGGGGCGG,0.114
12,AACACUGCCAAUGCCGGUCCUAAGCCCGGAUAAAAGUGGAGUGGGCGG,0.0927
13,AACACUGCCAAUGCCGGUCCUAAGCCCGGAUAAAAGUGGAGAGGGCGG,0.0823
14,AACACUGCCAAUGCCGGUCCCGAGCCCGGAUAAAAGUGUAGGGGGCGG,0.109
15,AACACUGCCAAUGCCGGUCCCGAGCCCGGAUAAAAGUGAAGGGGGCGG,0.101
16,AACACUGCCAAUGCCGGUCCCGAGCCCGGAUAAAAGUGGACGGGGCGG,0.133
17,AACACUGCCAAUGCCGGUCCUAAGCCCGAAUAAAAGUGGAGGGGGCGG,0.096
18,AACACUGCCAAUGCCGGUCCUAAGCCCGCAUAAAAGUGGAGGGGGCGG,0.0653
19,AACACUGCCAAUGCCGGUCCCCAGCCCGGAUAAAAGUGGAGGGGUCGG,0.946
20,AACACUGCCAAUGCCGGUCCCCAGCCCGGAUAAAAGUGGAGGGGCCGG,0.491
21,AACACUGCCAAUGCCGGUCCCCAGCUCGGAUAAAAGUGGAGGGGGCGG,0.631
22,AACACUGCCAAUGCCGGUCCCCAGCGCGGAUAAAAGUGGAGGGGGCGG,0.112

row,Variant,self-cleavage
1,AACACUGCCAAUGCCGGUCCCCAGCCCGGAUAAAAGUGGAGGGUGCGG,0.967
2,AACACUGCCAAUGCCGGUCCCCAGCCCGGAUAAAAGUGGAGGGCGCGG,0.905
3,AACACUGCCAAUGCCGGUCCUAAGCCCGGAUAAAAGUGAAGGGGGCGG,0.0714
4,AACACUGCCAAUGCCGGUCCCGAGCCCGGAUAAAAGUGGAGCGGGCGG,0.0934
5,AACACUGCCAAUGCCGGUCCCGAGCCCGGAUAAAAGUGGAGAGGGCGG,0.0942
6,AACACUGCCAAUGCCGGUCCCGAGCCCGGAUAAAAGUGGAGGGGGCGU,0.334
7,AACACUGCCAAUGCCGGUCCCCAGCCCGGAUAAAAGUGGACGGGGCGG,0.195
8,AACACUGCCAAUGCCGGUCCCCAGCCCGGAUAAAAGUGGAGGAGGCGG,0.183
9,AACACUGCCAAUGCCGGUCCCCAGCCCGGAUAAAAGUGGAGGCGGCGG,0.145
10,AACACUGCCAAUGCCGGUCCCGAGCCCGCAUAAAAGUGGAGGGGGCGG,0.0828
11,AACACUGCCAAUGCCGGUCCCGAGCCCGAAUAAAAGUGGAGGGGGCGG,0.221
12,AACACUGCCAAUGCCGGUCCCCAGCCCGGAUAAGAGUGGAGGGGGCGG,0.912
13,AACACUGCCAAUGCCGGUCCCCAGCCCGGAUAACAGUGGAGGGGGCGG,0.169
14,AACACUGCCAAUGCCGGUCCCCAGCCCGGAUAAUAGUGGAGGGGGCGG,0.872
15,AACACUGCCAAUGCCGGUCCUAAGCCCGGAUAAAACUGGAGGGGGCGG,0.0754
16,AACACUGCCAAUGCCGGUCCUAAGCCCGGAUAAAAAUGGAGGGGGCGG,0.0555
17,AACACUGCCAAUGCCGGUCCCCAGCCCGGAUAAAAGUGGUGGGGGCGG,0.152
18,AACACUGCCAAUGCCGGUCCCCAGCCCGGAUAAAAGUGGCGGGGGCGG,0.102
19,AACACUGCCAAUGCCGGUCCCCAGCCCGGACAAAAGUGGAGGGGGCGG,1.12
20,AACACUGCCAAUGCCGGUCCCCAGCCCGGAAAAAAGUGGAGGGGGCGG,0.54
